Experimental data as given in the DeepSol protein solubility set.

Assay: soluble on expression in E. coli; label from the status in PepcDB or PDB records

| Sequence | soluble on expression in E. coli |
| --- | --- |
| MVTMALDSVTIEVIRNSAIYISEEMGVVLRDTAFSPNIKDRLDHSCAVLAPDGSLVAQAEHIPVHLGSMSVGVVNLVKYIEDLGMDLGVGDVVVTNDPYISGTHLNDLMAIKPVYAGDFHIAYVANKAHHVDVGGLVPGSIGGGAKELREEGIVIEPVKVVEAGSVRWDIVRMLEANVRTPRYFRGDLMAQIASLNVGEARLRELAGRYGGSALVEAWESILGYTERYTREKIGEVAALASGVYRARDYMETSKGELLEIVATLTIDKGRLTVDYTGTSKQVDEPINAVYGVTVAATLFALKSTLDPEMPMNQGFFRIVEIKAPEGTLVNPLKPAPVGGGNVETSQRIADVVFRALAEALPERVPAASCGTMSNVMVGGRGWAFYETNACGSGARPCCDGVDGVHTNMTNTLNTPIEVIEREYPILFNAYELRPDSGGPGMYRGGLGVVRAFTALEDNVTITIFAERGLTRPWGLSGGRPGRSFEAVITRAAGEVERLMSKHTAKLNRGDTIAIYTPGGGGYGDPCKRDRSLIERDLREGRITMESAVKDYCYDS | not soluble |
| MAHHHHHHMATNPDIETDIPRDVYQFFRGLNRAVERRDAAAMHDLYESQFDALTKNYYMAGHGQFRSWPALRLEQVSSCFRGNHMAELVYSFLFYKHLFMDNRSVRAPDAEGAWKTYSELLPMLKSYELPNWMLWDIFDEFLYQMTVVYQKVFVTEGIWAVPEVSRLLNEVIDNSRLLELVKQPDFLEDIHRGPNTGALSGFYAIVTKSKLNVLLGDYYSALTDLEPLDVYNKGRAVLTRVSPCAVSVFYHIGFSYLMIHRFEDASNAFRRCVTVKLNGRRFSERVQQDAAYMYVCARVLGGMPINNLTSYLDSRKVAAFEDDRESLRTGDEERFRDVFDRCSPKFLTVPPSDGSPVKGSEGRELQARMFRRAVQQQQDIIKLRGYFKVYQNTKMNLLETLLEVDDGYAPLFALKMRSRQLVHDGVTADLLQGVFTSSSEFDCIVQDDNVEVVPSMTFGGIEQKLLNKIKNTQRDIEVAKRKFNQTRNRDEGGNKRKDQRDQKRRPNQQQLHGGVGNNAGSANRSSNNVNRHPRQKMAAQPMTSNLFNRNDN | soluble |
| SATGTPESQARFGQSVKGLLTEKVTTCGTDVIALTKQVLKGSRSSELLGQAARNMVLQEDAILHSEDSLRKMAIITTHLQYQQEAIQKNVEQSSDLQDQLNHLLK | soluble |
| MAHHHHHHMKRTLSLGIEGSANKIGVGVVDQSGTVLSNVRETYITPPGSGFLPRETAIHHSQHVLQVVQRAMHDAAVTPADIDIISYTKGPGMGGPLSVGCTVAKTLSLLWGKPLVGVNHCVGHIEMGRVVTKSENPVVLYVSGGNTQVIAYADHRYRIFGETIDIAVGNCLDRVARLLNISNDPAPGYNIEQKAKKGKCYIRLPYTVKGMDMSFTGILSYIEQLVHHPQFSDSDVREMSKKRHKAAPSLTSMPVPPGETLNTDDICFSLQETIFAMLVEVTERAMSQIKTSDVLIVGGVGCNRRLQEMMQLMAAERGGRCFGMDQRYCIDNGCMIAYAGLLQYLSGSFTTMAEATVTQRFRTDEVYVTWRD | not soluble |
| MSFERSRHDLKLKTSDGMHCVMTNKEIVCLASQFFRQHLKDTTTEFTVGRADSVESIDICLTYMITGIYKKPAQFSPKLASEIFALANQWKVLEPKVLKNSIEKHCCEELQKNYEDIMYVCNMLIIAEDAHFTNVQSCCIATLVFYHVRDFIRIIVNGVESPTEECFSQRREFLKPSLTMQAKRAFAASNEAKCFIKFLPAIGED | not soluble |
| MSLNTPVEFNLPDSIELEREEVEEDLLTSGDEILLSYSSYIPPKLHSMTSHLQLRVDFFVNLLQFTRANFIYKVSPQVKLKLLESYEILNCSLSLSSYLSSDTDLTTQWHRVLLSEEVTEEELMLHQLKRFPELFGKFLAEIDEPLRSSSDIKFKVAAADLVNCVIYHSCLERGESEYRCNQLNLDLTEVGDDLPWFINFSIPDSLNKILLHLFYSFEDGNVPDEYHDKLLEIIKSLYYMCKQSDVWYAVKGSNAYEAGYQGFNLNSTLSNHLTWIQILLKIGRSVDALNIADFYHDLSGLVETLSSFDYEKAHPLYEEYFTKYGYQFSKTLFTTVIEQGKINDLFSRFPSHHDDLVRFFDEYPQYGHVSWIGNIFDQQYNAAAEVLVSVSSPDAAKKLDLNQLQVRLSIAKLSALAEEPILNMDLLNTIQSGLDLIDSQKKAAELAGEHTSLSKRYLETESHYQSILEKLKTNIVLSEYELVGIYTVLDDVTAFAKALHFLSLIKTIPEDSRQFLVSMIWRKCILFNDWNHTSDDLSTALYATLLAFFKEEYYRAGIPLPHVPKLTAPISKDTLSEQLFAGVECGNLLLDGAEADTSALSAVQTDMESRIRFLIGSAHSEAGASCVVNYETNTVDEGHHHHHH | soluble |
| MSLFSISNLSFIGFLKRIVFSSDSLPGKWEHRKFRFMYILRCSINPVVSIRYYYELRSLPCIEDILAIHPTLPARIHRPYLHKGGRAWTRGQYILEHYRFVQNLPEKYSKFLFPQKSVSLVQFIGKDGENFDIQCSPSGFDREGELMLSLFYNKTVIARLTYSVILTQNGHIAFIGGLQGAPKNTGPDVIRCATRACYGLFPKRIIFEAFCALMKACNVSECLAVSEHSHVFRQLKYWYQKRKTFVAVYSDFWDSVPGKTCGDWYKLPTQVIRKPLTDIPIKKRSDYRKQYALLDYIHETTIRSLDAYPVHSKHQNSNEGHHHHHH | not soluble |
| MVIKDPRITRFRKMLAQATNYEQWKAAALELDFLEGNAEWKEDFASDLYHYELIYDRLSNLKQYRQQNDFERLKRALREGLHHDLGNMGNPALYTRSRVGTKHLIEEYITQVCESLDYLCDHPVPGFPVYDKLQFFRDTLTSYGRPTLLLSGGASLGMFHFGVIKALWEKGLLPQVIAGSSIGAIIAGILGIHTDAEIPEMLVPESHNLKAWKWRGLLSAMRGTGLMDQDTLRRCLRENIGDYTFEEAYQRTGRSINISVSPVQAHQKARLLCGYTSPYLLVWSAALASAAVPGIFPPVTLMKKDLNGNSLPYMPRLKFVDGSVVSDLPIERLMHLYDVNFTIVSQTNPHVVPFLTDRGQDEKLSLTNLPSHLLKSEVQFHGQGVFDYLRKRVRPEILRQLSGQMYTIMAQRYSGDVTIAPNYSLRHFRRMLANPSPEYVREMILEGERATWPKISMIRSHARISKTLERCVRRLKQQNRRAAELEHHHHHH | not soluble |
| MFRTITSRLAFSVRQAEETVKPRIAYAQRSGRRIKEKVALMQAKRKEAGETGAPEKPGKFVLKTGKGTRDYGPAQSALRNSVLQTVTETFNRYGAETIDTPVFELRDVLMGKYGEEGGKLVYDLQDQGGELLSLRYDLTVPFARYLAMNKITNITRYQIAKVYRRDQPVMSRGRYREFYQCDFDIAGQYDLMLPEAECLGIVDELLTKLEIGEFFINLNHRLILEGMFAVSGIPAKDFKTICSSVDKLDKTPWEDVEQEMINEKFLTKEQTGKLGELVRFRELNSDLNNLELLEKMSQLPDLGQNDKFKKGAEELKVLIEYLNVDGVTTVRYEPSLARGLDYYTGAIYEAVAPKALEGTAVENSEDTAGQPVGVGSVAAGGRYDGLVKMFDSKANVPCCGVSFGIERLFAIMEARQKVAIRTTQTEVYVASAQKNLVRDRKKLVKMLRSAGIKTEMALKANPKLLTQFQYAEERRIPLAIVIGEQELKDGVVKLRNVVTRDEQTIKLDQLITAVRDTLAAL | not soluble |
| MSLTEMLSTEDFDFDLPEELIAQTPLKDRASSRLLVVNKETGDMEDKHFHDILDELQPGDALVMNNTRVLPARLYGEKPETGGHLEVLLLTNTEGDTWETLIKPAKRAKVGTEIQFGDGRLKAVVKEELEHGGRIIEFKYDGIFLEILESLGEMPLPPYIKERLDDPDRYQTVYAEENGSAAAPTAGLHFTKELLEEIKAKGVHLVYLTLHVGLGTFRPVSVDNIEEHHMHSEFYRLTEEAAKQLNEVRQAGGRIVAVGTTSIRTLETIGTKFNGEIQADSGWTDIFITPGYQFKVVEAFSTNFHLPKSTLVMLVSAFAGKDLTLAAYQHAIEEKYRFFSFGDAMFIKEGGSHHHHHH | soluble |
| MGSDKIHHHHHHMPTIAEKLKSRESDLTRAERQLSAAILDNYPIPGLGSITELAELAEVSTPTVARMVQKLGFSGYPEFQHALREELREIISNPVEKRAEQAPELPEGHMLNRYAVAVYDNIRATLENVNLEEFDTLCALLADTNSRVHIAGGRLSGTLAQNFYLHLQMIRRDVFMIPPRASWTHSVLDLLPGDTLILFDIRRYENATLLLAEMAHERGVKVVLFTDQWRSPIQKEATFTFAARIAVPSAWDSGVALLLLIESMIAKIQEDHWDTVKARNDELEAAFDRTRLFRKFT | not soluble |
| GMTDAPADAPLDADARRAVKPVICYPNDSLPRPDLALYRAARASARKTGEVLVPPREGRCFEVKAGQFFRISSVEGPQVGDLNLHNLHDLTERFFSGKTRALHGTHVTTGERLWSNLPYLRPMATIIEDTLGWYGIDQYGGSVHDVIGTRCDPYTGNLLAGGHYHHCCHSNLTRALADHTGLPLHEAEMLVHDVLNVFMCTGFTRDTGQYFMKASPVRPGDYLEFFAEIDLLGNLSACPGGDCSSEHSSDTASCHPLLVEIFAPAEGMLGDWPSPSVNGYDRSHGR | soluble |
| MGIYEAIQATIKEAMKARDERTLAFARVVKAELDRKGDGKPLPDEEAVKVLKALKEIALEQGNAFEAEFLDRFLPKEMSEEELEAWIREHVDLSQFKNPLAAIGVVTKALGPKAPGEKVRKVIERLTR | soluble |
| SAAALRVAAVGARLSVLASGLRAAVRSLCSQATSVNERIENKRRTALLGGGQRRIDAQHKRGKLTARERISLLLDPGSFVESDMFVEHRCADFGMAADKNKFPGDSVVTGRGRINGRLVYVFSQDFTVFGGSLSGAHAQKICKIMDQAITVGAPVIGLNDSGGARIQEGVESLAGYADIFLRNVTASGVIPQISLIMGPCAGGAVYSPALTDFTFMVKDTSYLFITGPDVVKSVTNEDVTQEELGGAKTHTTMSGVAHRAFENDVDALCNLRDFFNYLPLSSQDPAPVRECHDPSDRLVPELDTIVPLESTKAYNMVDIIHSVVDEREFFEIMPNYAKNIIVGFARMNGRTVGIVGNQPKVASGCLDINSSVKGARFVRFCDAFNIPLITFVDVPGFLPGTAQEYGGIIRHGAKLLYAFAEATVPKVTVITRKAYGGAYDVMSSKHLCGDTNYAWPTAEIAVMGAKGAVEIIFKGHENVEAAQAEYIEKFANPFPAAVRGFVDDIIQPSSTRARICCDLDVLASKKVQRPWRKHANIPL | soluble |
| LSAPDSITVTVADHNGVAVLSIGGEIDLITAAALEEAIGEVVADNPTALVIDLSAVEFLGSVGLKILAATSEKIGQSVKFGVVARGSVTRRPIHLMGLDKTFRLFSTLHDALTGVRGGRIDR | soluble |
| MSLDGGNSLFQLRKELYSTDNKLSSIDDDLSDRNTTEDLIMLPSSANSNFSSPYTSNNKYGNTKILTETEKYSVTKLSTDLSFLPGSNGNNNTIDTHHFEGLVDTALQKALVNDLDHIYIWNYNSIQKDTPICKISLHDDYSVLSSPPICLFTSSISSTNNDTANYNNNASGNINSGKFNNGICIINKKNSQFLYFEDISTINNLYTKLSKSKAHVLDLKLKDNENITSTINCEPSGIIIATSLGRVLFITIKDSTGKPKLELKQQLIKPQNSFFFRNLDSSKEIISLKKGPIVGKGERLLYITTRGGSLQIWQLSINSKSFKRLEINIYEHVLDSLQDLYPFAHGTLAFLDSHPIYSDTSSAHLTLASISNGNEIYYLMITVILDEKTNSFQIFSIYKLNTYFTKSTVDLNHKPQLFIPNALDSIVSPTLSVYVLFNNAVVMTQISSKLDSSFPLRRKWEDIIRFNKDVEIIGSGYSTDSIYVICKDMGVLKIASHSNNNQELELVSFVKSHIDQAVYFSTITSNEGHHHHHH | soluble |
| MSKSPDAFRTISEVAEWLGVQAHVLRFWESKFNQVKPVKRAGGRRYYRPADMQLLGGIKKLLHDDGMTIKGVQKLLREQGVAHVAEQSQD | not soluble |
